Measured values from the supplement of paper PMC9876800.

System: peptide library, one residue held at a place counted from the S/T acceptor
Assay: relative phosphorylation of the sub-library (ratio to the mean residue at this position); higher = residue favoured
Conditions: human
In short: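 Each biotinylated degenerate peptide sub-library fixed one residue at one position around a central Ser/Thr and was incubated with a purified recombinant kinase, a human or orthologue construct, in 384-well plates. The 90 min reactions, under kinase-specific conditions, contained 50 μM peptide and 50 μM ATP spiked with γ-32P-ATP. Phosphorylation was read by phosphorimaging spots on streptavidin membranes and quantifying them by densitometry. Relative sub-library phosphorylation expresses each value as a ratio to the mean residue at that position.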

BUB1, construct: Full length, sequence (O43683 whole entry, looked up): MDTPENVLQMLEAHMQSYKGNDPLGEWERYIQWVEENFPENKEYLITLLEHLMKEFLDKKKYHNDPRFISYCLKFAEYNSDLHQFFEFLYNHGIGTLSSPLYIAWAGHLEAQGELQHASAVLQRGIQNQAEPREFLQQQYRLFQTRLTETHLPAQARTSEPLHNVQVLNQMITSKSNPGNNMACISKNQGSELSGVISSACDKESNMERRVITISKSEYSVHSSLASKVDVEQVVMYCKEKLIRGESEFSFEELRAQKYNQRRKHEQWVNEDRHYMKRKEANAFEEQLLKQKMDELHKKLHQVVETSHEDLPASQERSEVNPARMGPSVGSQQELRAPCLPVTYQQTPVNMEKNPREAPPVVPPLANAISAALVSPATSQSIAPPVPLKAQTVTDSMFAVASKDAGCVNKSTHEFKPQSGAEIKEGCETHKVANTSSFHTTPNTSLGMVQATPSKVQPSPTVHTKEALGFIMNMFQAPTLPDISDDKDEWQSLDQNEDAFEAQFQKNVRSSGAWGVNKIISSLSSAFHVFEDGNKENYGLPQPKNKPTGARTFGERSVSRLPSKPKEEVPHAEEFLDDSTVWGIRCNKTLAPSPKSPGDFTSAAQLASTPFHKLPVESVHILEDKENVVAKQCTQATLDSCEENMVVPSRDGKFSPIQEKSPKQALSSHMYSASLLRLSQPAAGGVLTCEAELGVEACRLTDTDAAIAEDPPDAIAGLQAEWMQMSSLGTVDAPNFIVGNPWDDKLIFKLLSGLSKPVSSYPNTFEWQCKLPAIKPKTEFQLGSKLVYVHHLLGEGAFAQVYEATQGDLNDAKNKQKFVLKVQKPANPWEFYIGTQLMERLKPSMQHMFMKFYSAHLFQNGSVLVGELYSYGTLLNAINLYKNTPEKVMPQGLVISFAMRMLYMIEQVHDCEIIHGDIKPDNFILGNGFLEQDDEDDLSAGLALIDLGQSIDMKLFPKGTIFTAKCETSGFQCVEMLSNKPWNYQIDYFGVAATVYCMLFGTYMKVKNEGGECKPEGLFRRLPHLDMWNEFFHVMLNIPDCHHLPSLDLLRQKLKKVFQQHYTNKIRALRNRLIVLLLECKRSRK
ACVR2A, construct: aa162-end, sequence (P27037 162-513, looked up): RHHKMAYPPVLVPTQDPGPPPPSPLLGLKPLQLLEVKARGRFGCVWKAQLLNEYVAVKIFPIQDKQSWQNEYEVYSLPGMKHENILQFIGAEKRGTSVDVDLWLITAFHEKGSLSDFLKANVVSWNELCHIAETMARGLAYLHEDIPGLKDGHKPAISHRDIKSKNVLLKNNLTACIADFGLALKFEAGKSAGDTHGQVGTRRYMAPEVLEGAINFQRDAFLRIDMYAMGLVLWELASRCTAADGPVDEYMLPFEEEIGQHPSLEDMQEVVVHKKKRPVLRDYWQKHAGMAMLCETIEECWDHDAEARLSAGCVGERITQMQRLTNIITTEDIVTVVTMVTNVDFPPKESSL
CDK6, construct: Full length, sequence (Q00534 whole entry, looked up): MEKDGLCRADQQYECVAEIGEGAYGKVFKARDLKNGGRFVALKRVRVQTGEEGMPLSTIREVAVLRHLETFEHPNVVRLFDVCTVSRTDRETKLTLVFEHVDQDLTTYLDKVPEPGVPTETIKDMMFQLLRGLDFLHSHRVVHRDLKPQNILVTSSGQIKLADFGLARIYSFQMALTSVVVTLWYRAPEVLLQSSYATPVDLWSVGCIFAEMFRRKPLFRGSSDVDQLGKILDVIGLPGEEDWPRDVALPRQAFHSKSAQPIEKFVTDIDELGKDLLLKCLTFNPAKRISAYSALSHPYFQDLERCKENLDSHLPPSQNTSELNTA
CAMK2G, construct: aa24-334, sequence (Q13555 24-334, looked up): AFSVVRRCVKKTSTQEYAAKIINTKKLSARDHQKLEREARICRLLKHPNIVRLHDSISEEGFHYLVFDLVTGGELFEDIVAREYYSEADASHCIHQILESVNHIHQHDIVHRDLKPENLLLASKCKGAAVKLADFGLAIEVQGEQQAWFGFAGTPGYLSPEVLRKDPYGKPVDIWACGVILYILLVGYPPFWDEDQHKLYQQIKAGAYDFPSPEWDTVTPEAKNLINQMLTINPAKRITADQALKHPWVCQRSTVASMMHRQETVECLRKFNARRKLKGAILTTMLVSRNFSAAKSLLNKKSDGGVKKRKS

ACVR2A, construct: aa162-end (from UniProt P27037)
relative phosphorylation
Conditions | at +1 | at +2 | at +3 | at +4 | at -1 | at -2 | at -3 | at -4 | at -5
A fixed | 0.647 | 1.12 | 0.899 | 0.847 | 0.822 | 0.53 | 0.912 | 0.943 | 0.992
D fixed | 1.68 | 1.24 | 1.06 | 1.09 | 1.23 | 4.3 | 1.79 | 1.77 | 1.51
E fixed | 3.21 | 1.03 | 1.48 | 1.09 | 1.29 | 5.23 | 2.05 | 1.48 | 1.34
F fixed | 0.932 | 0.983 | 1.09 | 0.89 | 1.17 | 0.504 | 0.877 | 1.05 | 1.02
G fixed | 0.575 | 1.36 | 1.01 | 0.924 | 0.57 | 0.5 | 1.11 | 0.933 | 0.818
H fixed | 0.7 | 1.12 | 1 | 0.974 | 1.07 | 0.487 | 0.9 | 0.937 | 0.969
I fixed | 1.18 | 0.915 | 0.942 | 0.957 | 0.804 | 0.454 | 0.855 | 0.895 | 1.06
K fixed | 0.327 | 0.805 | 0.785 | 0.896 | 0.532 | 0.354 | 0.603 | 0.69 | 0.868
L fixed | 0.873 | 0.674 | 1.04 | 0.87 | 1.27 | 0.431 | 0.814 | 0.884 | 1.01
M fixed | 0.996 | 0.879 | 1 | 1.13 | 1.44 | 0.399 | 0.875 | 0.98 | 0.886
N fixed | 0.638 | 0.863 | 0.891 | 0.946 | 0.816 | 0.676 | 0.854 | 0.852 | 0.911
P fixed | 0.34 | 0.989 | 1.14 | 1.29 | 0.676 | 0.321 | 0.854 | 0.791 | 0.706
Q fixed | 1.23 | 1 | 0.848 | 1.05 | 0.9 | 0.769 | 0.863 | 0.82 | 0.732
R fixed | 0.416 | 0.935 | 0.658 | 0.835 | 0.577 | 0.504 | 0.783 | 0.777 | 0.808
V fixed | 1.32 | 0.999 | 0.963 | 0.877 | 1.1 | 0.502 | 0.928 | 0.924 | 1.02
W fixed | 0.961 | 0.983 | 1.08 | 1.36 | 1.39 | 0.54 | 1 | 1.28 | 1.37
Y fixed | 0.971 | 1.11 | 1.11 | 0.985 | 1.33 | 0.498 | 0.935 | 0.996 | 0.982
pThr fixed | 4.65 | 1.1 | 0.882 | 1.2 | 1.37 | 1.01 | 2.05 | 1.37 | 1.33
pTyr fixed | 2.81 | 0.877 | 1.39 | 1 | 1.81 | 0.721 | 1.66 | 1.16 | 1.29

BUB1, construct: Full length (from UniProt O43683)
relative phosphorylation
Conditions | at +1 | at +2 | at +3 | at +4 | at -1 | at -2 | at -3 | at -4 | at -5
A fixed | 0.963 | 0.738 | 0.95 | 0.855 | 0.796 | 0.718 | 1.66 | 1.24 | 0.423
D fixed | 0.375 | 0.267 | 0.416 | 0.455 | 0.321 | 0.411 | 0.232 | 0.61 | 0.245
E fixed | 0.325 | 0.331 | 0.379 | 0.424 | 0.289 | 0.284 | 0.347 | 0.865 | 0.246
F fixed | 0.541 | 1.13 | 0.784 | 0.78 | 0.855 | 0.411 | 0.389 | 0.739 | 0.486
G fixed | 1.34 | 1.09 | 1.09 | 1.31 | 0.502 | 0.418 | 0.918 | 1.06 | 0.377
H fixed | 0.807 | 1.22 | 0.969 | 1.04 | 0.902 | 0.597 | 0.591 | 0.882 | 0.393
I fixed | 0.594 | 0.761 | 0.565 | 1 | 0.551 | 1.8 | 0.839 | 0.556 | 1.12
K fixed | 3.21 | 2.02 | 1.22 | 1.93 | 2.21 | 3.31 | 1.2 | 1.66 | 0.472
L fixed | 0.552 | 0.851 | 0.543 | 0.849 | 1.43 | 1.13 | 0.526 | 1.16 | 4.97
M fixed | 0.759 | 0.986 | 0.777 | 0.96 | 1.32 | 0.851 | 0.656 | 1.13 | 1.3
N fixed | 0.662 | 0.583 | 0.711 | 1.07 | 0.566 | 0.584 | 0.616 | 0.558 | 0.388
P fixed | 0.367 | 2.16 | 4.04 | 0.962 | 1.33 | 0.721 | 3.77 | 1.5 | 1.53
Q fixed | 0.972 | 0.747 | 0.767 | 1.01 | 0.77 | 0.868 | 1.24 | 1.07 | 0.905
R fixed | 3.99 | 2.14 | 1.41 | 1.8 | 2.76 | 2.32 | 2.38 | 1.64 | 1.31
V fixed | 0.611 | 0.777 | 0.631 | 0.78 | 0.435 | 1.65 | 0.791 | 0.676 | 0.543
W fixed | 0.497 | 0.491 | 0.936 | 0.949 | 0.705 | 0.485 | 0.442 | 0.829 | 0.412
Y fixed | 0.442 | 0.713 | 0.813 | 0.824 | 1.26 | 0.452 | 0.405 | 0.827 | 1.87
pThr fixed | 0.373 | 0.328 | 0.586 | 0.443 | 0.199 | 0.249 | 0.375 | 0.475 | 0.408
pTyr fixed | 0.252 | 0.29 | 0.697 | 0.463 | 0.315 | 0.281 | 0.256 | 0.414 | 0.993

CAMK2G, construct: aa24-334 (from UniProt Q13555)
relative phosphorylation
Conditions | at +1 | at +2 | at +3 | at +4 | at -1 | at -2 | at -3 | at -4 | at -5
A fixed | 0.737 | 0.749 | 0.902 | 0.943 | 0.933 | 0.991 | 0.897 | 0.98 | 1
D fixed | 0.862 | 3.95 | 1.64 | 1.87 | 1.41 | 1.02 | 0.898 | 1.07 | 1.13
E fixed | 0.878 | 2.06 | 2.04 | 1.99 | 1.26 | 0.887 | 0.9 | 1.04 | 1.12
F fixed | 2.53 | 0.723 | 0.818 | 0.816 | 0.913 | 1.25 | 1.27 | 0.987 | 0.991
G fixed | 0.709 | 0.692 | 0.983 | 1.02 | 0.953 | 1.07 | 0.829 | 0.974 | 0.971
H fixed | 0.814 | 0.784 | 0.979 | 0.903 | 0.897 | 1.25 | 1.06 | 1.14 | 1.19
I fixed | 1.14 | 0.712 | 0.879 | 0.814 | 0.855 | 0.775 | 0.918 | 0.924 | 0.855
K fixed | 0.824 | 0.705 | 0.863 | 0.785 | 1.1 | 0.889 | 0.945 | 0.946 | 1.09
L fixed | 1.01 | 0.675 | 0.907 | 0.812 | 0.965 | 0.795 | 0.916 | 0.894 | 0.953
M fixed | 1.43 | 0.696 | 0.855 | 0.785 | 0.944 | 0.841 | 1.04 | 0.903 | 0.871
N fixed | 0.813 | 0.92 | 0.943 | 0.91 | 1.05 | 1.17 | 1.04 | 1.07 | 1.02
P fixed | 0.675 | 0.64 | 0.708 | 0.948 | 0.78 | 0.705 | 0.871 | 0.896 | 0.864
Q fixed | 0.959 | 0.773 | 0.98 | 0.911 | 1.07 | 1 | 0.982 | 0.96 | 0.916
R fixed | 0.841 | 0.72 | 0.833 | 0.764 | 1.11 | 0.963 | 1.14 | 0.906 | 1
V fixed | 1.02 | 0.729 | 0.888 | 0.85 | 0.912 | 0.805 | 0.829 | 0.883 | 0.963
W fixed | 0.776 | 0.74 | 0.877 | 1.01 | 0.919 | 1.41 | 1.33 | 1.37 | 1.13
Y fixed | 0.984 | 0.728 | 0.907 | 0.881 | 0.933 | 1.18 | 1.14 | 1.05 | 0.938
pThr fixed | 1.09 | 1.16 | 1.78 | 2.53 | 1.25 | 1 | 0.985 | 1.11 | 1
pTyr fixed | 1.23 | 4.79 | 1.69 | 2.15 | 1.63 | 1.11 | 1.11 | 1.1 | 1.02

CDK6, construct: Full length (from UniProt Q00534)
relative phosphorylation
Conditions | at +1 | at +2 | at +3 | at +4 | at -1 | at -2 | at -3 | at -4 | at -5
A fixed | 0.249 | 0.659 | 0.594 | 0.709 | 0.827 | 0.895 | 1.21 | 1.02 | 1.04
D fixed | 0.113 | 0.259 | 0.209 | 0.504 | 0.48 | 0.316 | 0.476 | 0.884 | 0.866
E fixed | 0.11 | 0.238 | 0.174 | 0.424 | 0.473 | 0.406 | 0.66 | 0.859 | 0.909
F fixed | 0.353 | 0.811 | 0.529 | 0.795 | 0.908 | 1.1 | 0.978 | 0.852 | 0.979
G fixed | 1.39 | 0.731 | 0.681 | 1.15 | 1.29 | 0.73 | 1.42 | 1.04 | 1.23
H fixed | 0.295 | 1.24 | 1.06 | 1.23 | 1.11 | 1.16 | 1.2 | 1.11 | 1.18
I fixed | 0.308 | 1.04 | 0.461 | 0.746 | 0.493 | 0.878 | 0.932 | 0.757 | 0.669
K fixed | 0.303 | 1.83 | 3.16 | 1.64 | 1.23 | 0.788 | 1.03 | 1.35 | 1.57
L fixed | 0.344 | 1.1 | 0.458 | 0.785 | 1.14 | 1.29 | 1.08 | 0.85 | 0.773
M fixed | 0.328 | 1.01 | 0.581 | 0.891 | 1.28 | 1.5 | 1.03 | 0.867 | 0.736
N fixed | 0.211 | 0.885 | 0.747 | 0.957 | 0.746 | 0.783 | 0.827 | 1.19 | 1.04
P fixed | 11.6 | 0.494 | 0.862 | 1.01 | 1.26 | 2.2 | 1.15 | 1.07 | 1.24
Q fixed | 0.258 | 0.905 | 0.702 | 1.03 | 1.04 | 0.894 | 0.865 | 1.05 | 0.99
R fixed | 0.31 | 3.29 | 5 | 2.44 | 1.78 | 0.969 | 1.33 | 1.15 | 1.31
V fixed | 0.315 | 0.956 | 0.513 | 0.724 | 0.64 | 0.835 | 0.886 | 0.673 | 0.68
W fixed | 0.285 | 0.665 | 0.58 | 1.13 | 1.08 | 1.06 | 0.92 | 1.25 | 0.721
Y fixed | 0.24 | 0.887 | 0.688 | 0.829 | 1.23 | 1.19 | 1.02 | 1.05 | 1.06
pThr fixed | 0.326 | 0.502 | 0.433 | 0.336 | 0.25 | 0.548 | 0.725 | 0.882 | 0.934
pTyr fixed | 0.339 | 0.36 | 0.486 | 0.349 | 0.324 | 0.798 | 0.81 | 1.12 | 1.34
